Values belong to the binder of their own block, whether it stands above or below them.
Columns and labels:
[1] = target: T1, human CTLA4 (human); assay: SPR Biacore T200, 37C, antibody captured, ATP 10 uM
T1 construct: also called hCTLA4; hCTLA4-His-BAP
Method: (§1) Biacore T200 was used to measure the binding of the generated antibodies to human CTLA4. 20 mM ACES (pH 7.4), 150 mM NaCl, 2 mM MgCl₂, 0.05% Tween 20 with ATP added to the desired concentration was used as the running buffer, and the assay was performed at 37° C. First, Protein G (CALBIOCHEM) was immobilized onto a Series S Sensor Chip CM3 (GE Healthcare), and the antibodies were captured by interacting an antibody solution prepared in an ATP-free running buffer with the chip. Next, by interacting with a human CTLA4 solution prepared in a running buffer containing ATP to the desired concentration, or a human CTLA4 solution prepared in a running buffer containing no ATP, the binding ability of the antibody to human CTLA4 in the presence or absence of ATP was evaluated. Chips were regenerated with 25 mM NaOH and 10 mM Glycine-HCl (pH 1.5), and assay was performed by repeatedly capturing antibodies. The dissociation constant of each antibody for CTLA4 was calculated using Biacore T200 Evaluation Software 2.0. Specifically, the binding rate constant ka (L/mol/s) and the dissociation rate constant kd (1/s) were calculated by global fitting of the sensorgrams obtained by the measurement, using a 1:1 Langmuir binding model. The dissociation constant KD (mol/L) was calculated from those values. Alternatively, the dissociation constant KD (mol/L) was calculated by the steady state model. In addition, the binding amount of CTLA4 per unit amount of antibody was calculated by correcting the amount of CTLA4 bound as calculated from the sensorgram obtained by the assay with the amount of antibody captured onto the chip surface.

[2] = target: T1, human CTLA4; assay: SPR Biacore T200, 37C, antibody captured, AMP 10 uM
[3] = target: T1, human CTLA4; assay: SPR Biacore T200, 37C, antibody captured, ATP 100 uM
Method: as §1
(§2) Next, the binding ability of some variants to mouse CTLA4 and cynomolgus monkey CTLA4 was evaluated.

[4] = target: T2, cynomolgus monkey CTLA4 (CyCTLA4-His-BAP) (cynomolgus monkey); assay: as above
Method: as §1, §2

[5] = target: T1, human CTLA4; assay: SPR Biacore T200, 37C, antibody captured, ATP 10 uM; remark: listed apart in the source
Method: as §1, §2

[6] = target: T2, cynomolgus monkey CTLA4 …; assay: as above
Method: as §1, §2

[7] = target: T1, human CTLA4; assay: as above; remark: listed apart in the source
Method: as §1
(§3) The binding ability of the generated variants to human CTLA4 in the presence of ADP or AMP was evaluated by Biacore T200 and compared with the binding ability in the presence of ATP.

[8] = target: T1, human CTLA4; assay: SPR Biacore T200, 37C, antibody captured, no ATP, steady state model
[9] = target: T1, human CTLA4; assay: SPR Biacore T200, 37C, antibody captured, ATP 1 uM
Method: as §1, §2

[10] = target: T2, cynomolgus monkey CTLA4 …; assay: SPR Biacore T200, 37C, antibody captured, ATP 1 uM
Method: as §1, §2

[11] = target: T1, human CTLA4; assay: SPR Biacore T200, 37C, antibody captured, ATP 1 uM; remark: listed apart in the source
Method: as §1

[12] = target: T1, human CTLA4; assay: SPR Biacore T200, 37C, antibody captured, ADP 10 uM;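 note: antibodies held on a Protein G CM3 chip, human CTLA4 as analyte in ACES pH 7.4 buffer, rates from a global 1:1 Langmuir fit, Kd from rates or steady state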
Method: as §1, §3

[13] = target: T3, human C1q protein (Calbiochem) (human, UniProt P02745 23-245; P02746 28-253; P02747 29-245); assay: ELISA: antibody coated on the plate at the varied concentration, hC1q 3 µg/mL added, detected with HRP-conjugated anti-hC1q antibody, O.D (450-690nm)
T3 construct: bought; also called hC1q
Method: The antigen used was a human C1q protein (hC1q).
First, a 96-well maxisorp plate (Thermo fisher) was coated at 4° C. overnight with 50 μL of solutions containing each antibody prepared at 30, 10, 3, 1, 0.3, 0.1, and 0.03 μg/mL in PBS. Each well of the plate was washed with Wash buffer to remove the antibody not bound to the plate, and then the wells were blocked with 200 μL of Blocking/dilution Buffer at room temperature for 2 hours or longer. After the Blocking/dilution Buffer was removed from each well, hC1q (Calbiochem) prepared such that the final concentration was 3 μg/mL in Blocking/dilution Buffer was added at 50 μL per well. The plate was then allowed to stand at room temperature for 1 hour to allow hC1q to bind to the antibody within each well. After washing with Wash Buffer, 50 μL of an HRP-conjugated anti-hC1q antibody (AbDSerotec) diluted with Blocking/dilution Buffer was added to each well, and the plate was incubated while standing for 1 hour. After washing with Wash Buffer, TMB single solution (Invitrogen) was added. The color development reaction of the solution in each well was stopped by addition of Stop Buffer, and then the developed color was measured by absorbance at 450 nm and 690 nm.

[14] = target: T4, human FcγRIIb extracellular domain (human, UniProt P31994 43-217); assay: SPR Biacore 8K+; KD of G1d divided by KD of this antibody;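 note: antibodies captured on an anti-Fab-kappa streptavidin chip, soluble FcγR ectodomains flowed over, KD by steady-state fit for FcγRIIb and Langmuir kinetic model for the other receptors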
T4 construct: extracellular domain; also called hFcγR IIb
T4 sequence (looked up): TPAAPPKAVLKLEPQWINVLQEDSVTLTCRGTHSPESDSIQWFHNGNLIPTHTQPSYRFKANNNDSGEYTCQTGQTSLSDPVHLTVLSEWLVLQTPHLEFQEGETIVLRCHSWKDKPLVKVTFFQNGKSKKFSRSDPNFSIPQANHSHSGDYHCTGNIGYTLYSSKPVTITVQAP

[15] = target: T5, human FcγRIIIa V extracellular domain (human, UniProt P08637 17-208); assay: as above
T5 construct: extracellular domain; also called hFcγR IIIa V

[16] = target: T6, human FcγRIIa R extracellular domain (human, UniProt P12318 34-217); assay: as above
T6 construct: extracellular domain; also called hFcγR IIa R
T6 sequence (looked up): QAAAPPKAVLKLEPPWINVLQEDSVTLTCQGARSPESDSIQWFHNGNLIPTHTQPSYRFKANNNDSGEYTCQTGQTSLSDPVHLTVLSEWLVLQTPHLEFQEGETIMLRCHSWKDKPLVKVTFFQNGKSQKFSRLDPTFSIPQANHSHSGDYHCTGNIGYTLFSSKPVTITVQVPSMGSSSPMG

[17] = target: T7, human FcγRIa extracellular domain (human, UniProt P12314 16-292); assay: as above
T7 construct: extracellular domain; also called hFcγR Ia; hFcγRIa

[18] = target: T8, human FcγRIIa H extracellular domain (human, UniProt P12318 34-217); assay: as above
T8 construct: extracellular domain; also called hFcγR IIa H
T8 sequence (looked up): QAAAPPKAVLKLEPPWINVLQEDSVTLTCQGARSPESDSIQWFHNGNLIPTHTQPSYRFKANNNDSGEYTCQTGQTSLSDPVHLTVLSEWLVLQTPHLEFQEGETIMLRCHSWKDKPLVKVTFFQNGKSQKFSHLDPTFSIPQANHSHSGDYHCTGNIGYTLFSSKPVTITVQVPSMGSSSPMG

[19] = target: T9, human FcγRIIIa F extracellular domain (human, UniProt P08637 17-208); assay: as above
T9 construct: extracellular domain; also called hFcγR IIIa F

[20] = target: T5, human FcγRIIIa V extracellular domain; assay: SPR Biacore 8K+; KD for FcγRIIb divided by KD for this FcγR;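 note: antibodies captured on an anti-human Fab kappa SA chip with soluble human FcγR ectodomains flowed over, FcγRIIb KD from steady-state fit, other FcγR KD from Langmuir model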
Method: (§4) The interaction between the produced antibodies and human FcγRs was analyzed using Biacore 8K+ by the method below. For the running buffer, 50 mM Na-Phosphate, 150 mM NaCl, and 0.05% Tween20 (pH 7.4) was used, and measurement was performed at 25° C. The sensor chip used was a Series S SA chip (GE Healthcare) onto which CaptureSelect Human Fab-kappa Kinetics Biotin Conjugate (Thermo Fisher Scientific) was immobilized. An antibody of interest was captured onto this chip, and each FcγR diluted with the running buffer was allowed to interact with it. The chip was regenerated using 10 mM Glycine-HCl (pH 1.5), and repeatedly used to capture antibodies and perform measurement. The dissociation constants KD (mol/L) of each antibody for FcγRs were calculated using Biacore Insight Evaluation Software, with a steady state affinity model for the dissociation constant for FcγRIIb and a 1:1 Langmuir binding model for the dissociation constants for the other FcγRs (Table 48).

[21] = target: T6, human FcγRIIa R extracellular domain; assay: as above
Method: as §4

[22] = target: T8, human FcγRIIa H extracellular domain; assay: as above
Method: as §4

[23] = target: T9, human FcγRIIIa F extracellular domain; assay: as above
Method: as §4

[24] = target: T4, human FcγRIIb extracellular domain; assay: SPR Biacore 8K+, antibody captured, FcγR as analyte, steady state affinity model
Method: as §4

[25] = target: T5, human FcγRIIIa V extracellular domain; assay: SPR Biacore 8K+, antibody captured, FcγR as analyte, 1:1 Langmuir model;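 note: antibodies captured on a streptavidin chip through a biotinylated anti-human Fab kappa reagent, with FcγR extracellular domains injected in pH 7.4 phosphate buffer at 25 °C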
[26] = target: T6, human FcγRIIa R extracellular domain; assay: as above
[27] = target: T7, human FcγRIa extracellular domain; assay: as above
[28] = target: T8, human FcγRIIa H extracellular domain; assay: as above
[29] = target: T9, human FcγRIIIa F extracellular domain; assay: as above
[30] = target: hFcγRIIIaV on hFcγRIIIaV-expressing Jurkat cells (human, UniProt P08637 17-254); assay: cell-based or functional assay
Sequence of hFcγRIIIaV on hFcγRIIIaV-expressing Jurkat cells (P08637 17-254, form in doubt): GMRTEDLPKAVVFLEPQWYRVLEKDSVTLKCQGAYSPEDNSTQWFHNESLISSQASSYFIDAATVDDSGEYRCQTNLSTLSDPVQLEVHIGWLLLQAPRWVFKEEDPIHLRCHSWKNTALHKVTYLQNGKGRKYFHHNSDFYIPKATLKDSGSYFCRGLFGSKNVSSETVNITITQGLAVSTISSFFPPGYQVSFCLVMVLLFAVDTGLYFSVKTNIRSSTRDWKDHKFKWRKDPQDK

T9 sequence (P08637 17-208): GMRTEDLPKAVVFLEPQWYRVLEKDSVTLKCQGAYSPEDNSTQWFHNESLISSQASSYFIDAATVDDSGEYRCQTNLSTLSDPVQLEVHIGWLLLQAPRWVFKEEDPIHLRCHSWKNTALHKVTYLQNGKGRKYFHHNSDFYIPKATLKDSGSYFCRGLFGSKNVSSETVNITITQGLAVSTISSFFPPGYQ
T1 sequence (chain, as listed by the source limits assumed): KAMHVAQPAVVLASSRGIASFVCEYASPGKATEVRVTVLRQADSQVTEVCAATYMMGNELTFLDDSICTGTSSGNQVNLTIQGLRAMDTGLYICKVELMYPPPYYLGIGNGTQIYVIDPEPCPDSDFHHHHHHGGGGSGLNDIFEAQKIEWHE
T2 sequence (chain, as listed by the source limits assumed): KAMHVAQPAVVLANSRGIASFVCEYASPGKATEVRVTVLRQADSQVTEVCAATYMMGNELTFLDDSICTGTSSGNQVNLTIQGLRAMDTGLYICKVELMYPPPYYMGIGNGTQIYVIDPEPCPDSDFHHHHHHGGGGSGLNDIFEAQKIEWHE
T5 sequence (P08637 17-208 F176V limits assumed): as the sequence (P08637 17-208) above, with F160V counted along it
T7 sequence (P12314 16-292): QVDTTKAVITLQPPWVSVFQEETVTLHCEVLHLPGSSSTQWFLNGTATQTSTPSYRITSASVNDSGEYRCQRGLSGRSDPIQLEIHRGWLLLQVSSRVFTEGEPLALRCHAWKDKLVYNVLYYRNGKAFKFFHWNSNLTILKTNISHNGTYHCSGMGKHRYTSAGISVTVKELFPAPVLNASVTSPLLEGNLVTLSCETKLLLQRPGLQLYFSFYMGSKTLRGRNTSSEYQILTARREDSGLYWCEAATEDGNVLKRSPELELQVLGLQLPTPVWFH
T3 sequence (P02745 23-245 limits assumed, chain 1 of 3): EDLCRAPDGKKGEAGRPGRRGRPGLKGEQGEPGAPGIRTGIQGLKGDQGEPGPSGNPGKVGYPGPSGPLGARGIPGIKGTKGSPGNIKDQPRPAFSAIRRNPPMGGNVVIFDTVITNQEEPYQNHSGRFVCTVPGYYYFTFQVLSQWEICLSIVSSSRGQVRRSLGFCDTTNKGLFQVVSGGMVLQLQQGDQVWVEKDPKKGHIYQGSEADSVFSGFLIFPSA
T3 sequence (P02746 28-253 limits assumed, chain 2 of 3): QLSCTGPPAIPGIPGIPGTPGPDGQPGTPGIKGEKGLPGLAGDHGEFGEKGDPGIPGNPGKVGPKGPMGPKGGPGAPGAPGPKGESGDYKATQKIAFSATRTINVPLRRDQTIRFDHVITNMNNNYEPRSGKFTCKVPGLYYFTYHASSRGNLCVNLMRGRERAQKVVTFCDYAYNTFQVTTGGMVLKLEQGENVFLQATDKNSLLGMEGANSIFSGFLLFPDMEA
T3 sequence (P02747 29-245 limits assumed, chain 3 of 3): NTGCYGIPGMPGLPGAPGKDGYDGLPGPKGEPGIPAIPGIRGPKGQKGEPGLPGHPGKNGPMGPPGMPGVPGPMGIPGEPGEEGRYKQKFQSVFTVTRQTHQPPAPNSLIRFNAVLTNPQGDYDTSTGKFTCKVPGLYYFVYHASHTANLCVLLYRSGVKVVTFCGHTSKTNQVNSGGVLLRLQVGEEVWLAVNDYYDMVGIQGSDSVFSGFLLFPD

Kd [1]: 32 nM
Kd [2]: 130 nM
koff [2]: 0.02 s⁻¹
kon [2]: 150000 M⁻¹ s⁻¹
Kd [3]: 7.8 nM
Kd [4]: 16 nM
Kd [5]: 25 nM
Kd [6]: 41 nM
Kd [7]: 26 nM
koff [7]: 0.0029 s⁻¹
kon [7]: 110000 M⁻¹ s⁻¹
Kd [8]: 7600 nM
Kd [9]: 95 nM
Kd [10]: 160 nM
Kd [11]: 160 nM
Kd [12]: 42 nM
koff [12]: 0.0064 s⁻¹
kon [12]: 150000 M⁻¹ s⁻¹
B1: 04H1656-G1m/04L1612-lam1 (antibody, human IgG1, lambda)
heavy: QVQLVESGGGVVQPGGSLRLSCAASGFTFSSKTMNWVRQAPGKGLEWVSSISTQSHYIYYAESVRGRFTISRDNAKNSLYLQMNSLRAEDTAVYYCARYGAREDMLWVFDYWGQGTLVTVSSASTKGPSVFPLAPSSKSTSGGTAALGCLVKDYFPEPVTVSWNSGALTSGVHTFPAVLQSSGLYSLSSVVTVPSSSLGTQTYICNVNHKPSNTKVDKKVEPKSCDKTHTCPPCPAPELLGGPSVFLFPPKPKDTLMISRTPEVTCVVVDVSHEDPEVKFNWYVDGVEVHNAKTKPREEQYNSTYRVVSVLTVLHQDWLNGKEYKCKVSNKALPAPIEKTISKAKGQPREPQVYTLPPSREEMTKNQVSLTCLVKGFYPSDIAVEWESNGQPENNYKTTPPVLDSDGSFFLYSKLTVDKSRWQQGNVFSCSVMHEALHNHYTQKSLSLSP
light: QSALTQPPSASGSPGQSVTISCEGPSTGVGDYTYVHWYQQHPGKAPKLMIYFTSKKPSGVPDRFSGSKSGNTASLTVSGLQAEDEADYYCQTYAAPLGPMFGGGTKLTVLGQPKAAPSVTLFPPSSEELQANKATLVCLISDFYPGAVTVAWKADSSPVKAGVETTTPSKQSNNKYAASSYLSLTPEQWKSHRSYSCQVTHEGSTVEKTVAPTECS

binding result [13]: binds
Relative value to KD between G1d and hFcgRs [14]: 1
Relative value to KD between G1d and hFcgRs [15]: 1
Relative value to KD between G1d and hFcgRs [16]: 1
Relative value to KD between G1d and hFcgRs [17]: 1
Relative value to KD between G1d and hFcgRs [18]: 1
Relative value to KD between G1d and hFcgRs [19]: 1
A/I ratio (KD for FcγRIIb divided by KD for each FcγR) [20]: 28.1
A/I ratio (KD for FcγRIIb divided by KD for each FcγR) [21]: 6.1
A/I ratio (KD for FcγRIIb divided by KD for each FcγR) [22]: 8.9
A/I ratio (KD for FcγRIIb divided by KD for each FcγR) [23]: 3.4
Kd [24]: 10100 nM
Kd [25]: 358 nM
Kd [26]: 1660 nM
Kd [27]: 0.0901 nM
Kd [28]: 1120 nM
Kd [29]: 2960 nM
EC50 value (hFcγRIIIaV ADCC Reporter Bioassay, Hepa1-6/hEREG target cells) [30]: 0.0463 µg/mL
B2: H240-G1d/L73-k0 (antibody, human IgG1, kappa)
heavy: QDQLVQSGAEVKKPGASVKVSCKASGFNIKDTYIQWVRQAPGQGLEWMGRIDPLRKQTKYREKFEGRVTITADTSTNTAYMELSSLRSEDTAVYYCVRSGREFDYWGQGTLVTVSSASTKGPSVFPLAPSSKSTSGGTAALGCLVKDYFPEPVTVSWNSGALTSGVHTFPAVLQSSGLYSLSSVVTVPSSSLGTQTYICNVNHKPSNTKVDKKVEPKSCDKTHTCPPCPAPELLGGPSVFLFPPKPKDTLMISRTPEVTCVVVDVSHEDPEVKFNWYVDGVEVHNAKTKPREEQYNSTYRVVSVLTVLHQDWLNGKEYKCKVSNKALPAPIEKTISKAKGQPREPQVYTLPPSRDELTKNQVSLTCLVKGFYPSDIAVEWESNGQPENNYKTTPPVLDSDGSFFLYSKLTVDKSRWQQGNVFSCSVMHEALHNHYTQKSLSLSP
light: DIQMTQSPSSLSASVGDRVTITCRASQDIHKYIAWYQQKPGQAPRLLIQYTSTLQPGVPSRFSGSGSGTDYTFTISSLQPEDIATYYCLQYEQLRTFGGGTKVEIKRTVAAPSVFIFPPSDEQLKSGTASVVCLLNNFYPREAKVQWKVDNALQSGNSQESVTEQDSKDSTYSLSSTLTLSKADYEKHKVYACEVTHQGLSSPVTKSFNRGEC
notes: Anti-human Epiregulin antibody with the human IgG1 constant region G1d (C-terminal Gly and Lys deleted); also called EGL-G1d

binding result [13]: no binding (tested: 30 µg/mL)
B3: EGL-G4d (antibody, human IgG4 S228P, kappa)
heavy: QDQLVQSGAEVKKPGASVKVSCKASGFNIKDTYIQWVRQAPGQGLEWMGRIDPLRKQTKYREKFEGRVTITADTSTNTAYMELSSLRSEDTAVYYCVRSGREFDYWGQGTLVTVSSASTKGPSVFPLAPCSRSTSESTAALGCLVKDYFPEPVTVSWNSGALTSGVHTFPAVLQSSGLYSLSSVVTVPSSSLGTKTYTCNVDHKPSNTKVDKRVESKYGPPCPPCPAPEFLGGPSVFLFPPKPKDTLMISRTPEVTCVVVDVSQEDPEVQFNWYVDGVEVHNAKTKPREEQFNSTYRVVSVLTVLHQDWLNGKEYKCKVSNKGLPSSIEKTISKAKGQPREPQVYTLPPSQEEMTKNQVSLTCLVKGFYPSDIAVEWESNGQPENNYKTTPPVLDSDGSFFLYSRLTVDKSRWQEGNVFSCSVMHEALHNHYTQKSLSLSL
light: DIQMTQSPSSLSASVGDRVTITCRASQDIHKYIAWYQQKPGQAPRLLIQYTSTLQPGVPSRFSGSGSGTDYTFTISSLQPEDIATYYCLQYEQLRTFGGGTKVEIKRTVAAPSVFIFPPSDEQLKSGTASVVCLLNNFYPREAKVQWKVDNALQSGNSQESVTEQDSKDSTYSLSSTLTLSKADYEKHKVYACEVTHQGLSSPVTKSFNRGEC

From patent US20260022175A1 (Chugai, published 2026)
